The results in this text go back to patent publication US20240261332A1.

This assay deals with CD19 (human) (UniProt P15391). The experiment in a line: cell-based or functional assay.
UniProt P15391, sequence (P15391 20-556): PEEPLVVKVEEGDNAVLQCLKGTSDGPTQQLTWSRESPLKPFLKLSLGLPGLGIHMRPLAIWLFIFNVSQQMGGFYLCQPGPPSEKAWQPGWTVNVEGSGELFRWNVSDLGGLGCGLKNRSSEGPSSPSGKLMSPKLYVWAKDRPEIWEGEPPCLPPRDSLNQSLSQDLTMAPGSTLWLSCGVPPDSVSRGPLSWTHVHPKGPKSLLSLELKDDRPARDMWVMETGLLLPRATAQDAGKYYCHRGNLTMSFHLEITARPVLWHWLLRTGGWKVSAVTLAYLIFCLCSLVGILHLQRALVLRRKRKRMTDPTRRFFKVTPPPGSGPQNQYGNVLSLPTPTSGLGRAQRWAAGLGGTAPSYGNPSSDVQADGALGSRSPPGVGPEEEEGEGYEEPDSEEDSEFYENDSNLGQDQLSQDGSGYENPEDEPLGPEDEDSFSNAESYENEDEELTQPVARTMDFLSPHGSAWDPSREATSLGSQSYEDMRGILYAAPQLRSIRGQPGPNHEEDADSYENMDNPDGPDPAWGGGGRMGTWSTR

As for “anti-CD19 activating CAR (19scFv.CD28.zeta) (from UniProt P10747 153-220; P20963 52-164)”, the portion of CAR19-NK cells that acquired CD19 on their surface (trogocytosis) within minutes of co-culture with Raji targets, flow cytometry is 75%.
